This note sets out measurements from patent US20260125451A1 (JIANGSU HENGRUI PHARMACEUTICALS, published 2026).

The target in experiment [1] is T1, APRIL (Acro Biosystems, Cat: APL-H52D1) (UniProt O75888 115-250, limits assumed).
T1 construct: also called ARPIL; A proliferation-inducing ligand
T1 sequence (looked up): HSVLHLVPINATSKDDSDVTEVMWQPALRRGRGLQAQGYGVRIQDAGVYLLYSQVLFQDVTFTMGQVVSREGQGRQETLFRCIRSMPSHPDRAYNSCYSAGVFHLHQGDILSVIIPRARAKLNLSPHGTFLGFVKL
As to the kind of experiment: ELISA, APRIL coated, anti-human Fc-HRP. Background: ELISA stands for enzyme-linked immunosorbent assay.

For experiment [2], the target named is T2, type I interferon (IFN) receptor subunit 1 (IFNAR1) (human, UniProt P17181 28-557).
T2 sequence (looked up): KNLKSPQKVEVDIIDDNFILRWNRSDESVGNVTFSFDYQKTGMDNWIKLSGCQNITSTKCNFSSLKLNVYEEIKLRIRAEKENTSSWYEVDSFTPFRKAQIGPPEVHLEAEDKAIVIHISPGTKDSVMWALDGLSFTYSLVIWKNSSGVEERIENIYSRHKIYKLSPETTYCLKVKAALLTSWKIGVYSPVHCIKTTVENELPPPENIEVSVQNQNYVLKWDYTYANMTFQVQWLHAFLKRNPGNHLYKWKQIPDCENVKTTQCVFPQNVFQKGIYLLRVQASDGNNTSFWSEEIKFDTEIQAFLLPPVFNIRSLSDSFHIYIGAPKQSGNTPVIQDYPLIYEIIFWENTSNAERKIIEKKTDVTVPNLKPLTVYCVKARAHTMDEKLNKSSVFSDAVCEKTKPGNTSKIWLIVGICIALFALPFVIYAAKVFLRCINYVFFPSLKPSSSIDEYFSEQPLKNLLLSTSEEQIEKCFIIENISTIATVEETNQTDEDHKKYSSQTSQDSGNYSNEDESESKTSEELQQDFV
As to the kind of experiment: cell-based or functional assay.

Experiment [3] concerns the target T2, type I interferon (IFN) receptor …. As to the kind of experiment: cell-based or functional assay. This is another data set of the same source.
Experiment [4] has as its target T1, APRIL (Acro Biosystems, Cat: APL-H52D1). As to the kind of experiment: ELISA, APRIL coated, anti-human Fc-HRP, OD450. The procedure: The capabilities of fusion proteins B606401, B637302, B746201, and B805201 to bind to BAFF and APRIL were assessed by ELISA as follows:
BAFF (PeproTech, Cat: 310-13) or ARPIL (Acro Biosystems, Cat: APL-H52D1) was diluted to 1 μg/mL with PBS, and a 96-well plate was coated with the dilution overnight at 4° C. The plate was washed with PBST and blocked with Blocking Buffer (PBST containing 1% BSA) at 37° C. for 1 h. The plate was tapped. The test antibodies were diluted with Blocking Buffer. Incubation was performed at 37° C. for 1.5 h. The plate was washed with PBST. An HRP-mouse anti-human Fc antibody (GenScript, Cat: A01854-200) was diluted with Blocking Buffer. Incubation was performed at 37° C. for 40 min. The plate was washed with PBST. 100 μL of TMB substrate solution (Biopanda, Cat: TMB-S-003) was added, and color development was performed at 37° C. for 3 min. 100 μL of ELISA stop solution (Solarbio, Cat: C1058) was added. OD450 was measured.
The EC₅₀ value for the capability of B637302 to bind to APRIL decreased to 1/7 to ⅙ of that of telitacicept.

The target of experiment [5] is recombinant human BAFF (R&D cat: 7537-BF-025/CF) (human, UniProt Q9Y275 134-285, limits assumed). As to the kind of experiment: cell-based or functional assay.
Sequence of recombinant human BAFF (R&D cat: 7537-BF-025/CF) (Q9Y275 134-285 limits assumed): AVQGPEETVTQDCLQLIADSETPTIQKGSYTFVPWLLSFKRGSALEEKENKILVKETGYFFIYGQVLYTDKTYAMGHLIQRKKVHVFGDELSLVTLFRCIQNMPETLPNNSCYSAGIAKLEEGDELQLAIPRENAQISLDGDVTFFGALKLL

B1: B746201 (other)
heavy: EVQLVQSGAEVKKPGESLKISCKGSGYIFTNYWIAWVRQMPGKGLESMGIIYPGDSDIRYSPSFQGQVTISADKSITTAYLQWSSLKASDTAMYYCARHDIEGFDYWGRGTLVTVSSASTKGPSVFPLAPSSKSTSGGTAALGCLVKDYFPEPVTVSWNSGALTSGVHTFPAVLQSSGLYSLSSVVTVPSSSLGTQTYICNVNHKPSNTKVDKRVEPKSCDKTHTCPPCPAPEFEGGPSVFLFPPKPKDTLMISRTPEVTCVVVDVSHEDPEVKFNWYVDGVEVHNAKTKPREEQYNSTYRVVSVLTVLHQDWLNGKEYKCKVSNKALPASIEKTISKAKGQPREPQVYTLPPSRDELTKNQVSLTCLVKGFYPSDIAVEWESNGQPENNYKTTPPVLDSDGSFFLYSKLTVDKSRWQQGNVFSCSVMHEALHNHYTQKSLSLSPGKGGGGSGGGGSGGGGSMLQMAGQCSQNEYFDSLLHACIPCQLRCSSNTPPLTCQRYCSTSCREEQGEFYDHLLRDCISCASICGQHPKQCAAFCE
light: EIVLTQSPGTLSLSPGERATLSCRASQSVSSSFFAWYQQKPGQAPRLLIYGASSRATGIPDRLSGSGSGTDFTLTITRLEPEDFAVYYCQQYDSSAITFGQGTRLEIKRTVAAPSVFIFPPSDEQLKSGTASVVCLLNNFYPREAKVQWKVDNALQSGNSQESVTEQDSKDSTYSLSSTLTLSKADYEKHKVYACEVTHQGLSSPVTKSFNRGEC
notes: Fusion protein of anifrolumab, TACI-19-16 and BCMA-ECD-2
Consider B1, for which the “EC50 relative to that of telitacicept” value in experiment [1] amounted to 0.333 ratio. In addition, the “IC50 (nM), inhibition of the activity of type I interferons (IFN-β, HEK-Blue IFN-α/β cells)” value in experiment [2] came out at 1.64 nM. In addition, in experiment [3], the “IC50, inhibition of IFN-α-induced in vitro differentiation of B cells into plasma cells” value was determined as 1.9 nM. This molecule also gave an Emax in experiment [4] of 2.8 nM.

B2: B805201 (other)
heavy: EVQLVQSGAEVKKPGESLKISCKGSGYIFTNYWIAWVRQMPGKGLESMGIIYPGDSDIRYSPSFQGQVTISADKSITTAYLQWSSLKASDTAMYYCARHDIEGFDYWGRGTLVTVSSASTKGPSVFPLAPSSKSTSGGTAALGCLVKDYFPEPVTVSWNSGALTSGVHTFPAVLQSSGLYSLSSVVTVPSSSLGTQTYICNVNHKPSNTKVDKRVEPKSCDKTHTCPPCPAPEFEGGPSVFLFPPKPKDTLMISRTPEVTCVVVDVSHEDPEVKFNWYVDGVEVHNAKTKPREEQYNSTYRVVSVLTVLHQDWLNGKEYKCKVSNKALPASIEKTISKAKGQPREPQVYTLPPSRDELTKNQVSLTCLVKGFYPSDIAVEWESNGQPENNYKTTPPVLDSDGSFFLYSKLTVDKSRWQQGNVFSCSVMHEALHNHYTQKSLSLSPGKGGGGSGGGGSGGGGSSTSCREEQGEFYDHLLRDCISCASICGQHPKQCAAFCE
light: B1 light
notes: Anifrolumab with TACI-19-16 at the C-terminus of the heavy chain; also called B80521
On to B2, for which the “EC50 relative to that of telitacicept” value in experiment [1] came out at 0.333 ratio. The “IC50 (nM), inhibition of the activity of type I interferons (IFN-β, HEK-Blue IFN-α/β cells)” value in experiment [2] turned out to be 1.63 nM. Also, in experiment [5], the “Flow cytometry proliferating B cell proportion (%), mean, BAFF-induced, drug at 10 nM” value was 20.4%; the “Flow cytometry proliferating B cell proportion (%), mean, BAFF-induced, drug at 100 nM” value came to 24.3%; the “Flow cytometry proliferating B cell proportion (%), mean, BAFF-induced, drug at 1000 nM” value came out at 15%. In addition, in experiment [3], the “IC50, inhibition of IFN-α-induced in vitro differentiation of B cells into plasma cells” value was found to be 6.21 nM. This molecule displayed an Emax in experiment [4] of 2.85 nM.
